Source: patent US20240294614A1 (ACADEMY OF MILITARY MEDICAL SCIENCE PLA, published 2024)
Like-named read-outs stand apart in the source and are kept apart here.

Key:
[1] = biological target: Nipah virus Bangladesh strain glycoprotein G (Nipah virus, Bangladesh strain (NiV-BD)); test: cell-based or functional assay
[2] = biological target: T1, Hendra virus glycoprotein G (Hendra virus (HeV), UniProt O89343 71-604); test: ELISA, G protein coated at 1 µg/mL, antibody 1:3 dilutions from 20 µg/mL
T1 sequence: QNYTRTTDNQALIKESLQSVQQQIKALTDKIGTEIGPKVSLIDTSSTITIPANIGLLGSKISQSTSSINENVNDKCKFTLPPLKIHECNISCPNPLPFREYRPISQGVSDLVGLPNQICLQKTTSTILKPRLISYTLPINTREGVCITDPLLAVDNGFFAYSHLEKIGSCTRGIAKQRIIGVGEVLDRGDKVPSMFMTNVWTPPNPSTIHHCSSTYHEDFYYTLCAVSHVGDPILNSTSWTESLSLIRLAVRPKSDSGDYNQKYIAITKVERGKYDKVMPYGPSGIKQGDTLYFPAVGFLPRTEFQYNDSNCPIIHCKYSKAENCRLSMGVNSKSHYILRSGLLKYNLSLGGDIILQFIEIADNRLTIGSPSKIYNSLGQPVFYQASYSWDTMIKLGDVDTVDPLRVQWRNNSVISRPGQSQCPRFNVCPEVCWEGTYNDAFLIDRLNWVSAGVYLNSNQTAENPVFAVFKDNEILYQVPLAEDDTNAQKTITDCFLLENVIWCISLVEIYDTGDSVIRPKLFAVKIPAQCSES

[3] = biological target: T2, Nipah virus Malaysia strain glycoprotein G (Nipah virus, Malaysia strain (NiV-MY), UniProt Q9IH62 71-602); test: as above
T2 sequence: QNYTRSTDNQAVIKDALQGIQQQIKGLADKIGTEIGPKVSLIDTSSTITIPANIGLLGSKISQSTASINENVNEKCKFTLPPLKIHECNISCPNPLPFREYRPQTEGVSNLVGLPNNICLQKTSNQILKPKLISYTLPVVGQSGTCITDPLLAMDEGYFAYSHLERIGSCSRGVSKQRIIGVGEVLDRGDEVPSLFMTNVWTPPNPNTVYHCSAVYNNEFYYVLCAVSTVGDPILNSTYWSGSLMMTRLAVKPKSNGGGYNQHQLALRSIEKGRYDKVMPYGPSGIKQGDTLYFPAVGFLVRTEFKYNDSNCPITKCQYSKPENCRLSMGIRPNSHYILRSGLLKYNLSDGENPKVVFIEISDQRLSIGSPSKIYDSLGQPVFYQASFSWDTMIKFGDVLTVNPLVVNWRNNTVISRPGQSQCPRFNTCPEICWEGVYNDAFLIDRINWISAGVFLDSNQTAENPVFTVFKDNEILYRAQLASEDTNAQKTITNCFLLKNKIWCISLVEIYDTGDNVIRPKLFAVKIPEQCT

[4] = biological target: Nipah virus Bangladesh strain glycoprotein G (Nipah virus, Bangladesh strain (NiV-BD)); test: as above
[5] = biological target: T1, Hendra virus glycoprotein G; test: cell-based or functional assay
[6] = biological target: T2, Nipah virus Malaysia strain …; test: cell-based or functional assay
[7] = biological target: T1, Hendra virus glycoprotein G
[8] = biological target: T2, Nipah virus Malaysia strain …
[9] = biological target: Nipah virus Bangladesh strain glycoprotein G (Nipah virus, Bangladesh strain (NiV-BD))
[10] = biological target: Nipah virus Bangladesh strain glycoprotein G (Nipah virus, Bangladesh strain (NiV-BD)); remark: listed apart in the source
[11] = biological target: T2, Nipah virus Malaysia strain …; remark: listed apart in the source
[12] = biological target: Nipah virus Bangladesh strain glycoprotein G (Nipah virus, Bangladesh strain (NiV-BD)); remark: listed apart in the source
[13] = biological target: T1, Hendra virus glycoprotein G; remark: listed apart in the source
[14] = biological target: T2, Nipah virus Malaysia strain …; remark: listed apart in the source

B1: 1B6 (antibody, V domains shown)
VH: VQLQESGPGPVKPSETLSLTCTVSGGSMSRGYDWNWIRQPPGKGLEWIGYIGDDGGRSNYNPSLKSRVTISKDSSKNQFSLKLGSVSAADTAVYYCARALRAIWYNSGWFYNSLDVWGRGVLVTVSS
VL: DIVLTQSPASLAVSPGQRATITCRASEGVSVFGRDLIHWYQQKPGQPPKLLIYQTSNRDTGVPARFSGSGSGTDFTLTINPVEADDAADYYCLQSKNSYSFGQGTKVEIKT
**Q.** For B1, which percent neutralisation of NiV-BD pseudovirus at 1 µg/mL [1] is on record?
**A.** 100%

**Q.** What about the EC50 [2] of the same binder?
**A.** 0.0529 µg/mL

**Q.** What about the EC50 [3] of the same binder?
**A.** 0.0639 µg/mL

**Q.** What about the EC50 [4] of the same binder?
**A.** 28.4 ng/mL

**Q.** And the “IC50, neutralisation of HeV pseudovirus (HIV backbone, luciferase, 293T cells)” value [5]?
**A.** 16.3 ng/mL

**Q.** What about the “percent neutralisation of HeV pseudovirus at 1 µg/mL” value [5] of the same binder?
**A.** ~100%

**Q.** What about the “percent neutralisation of NiV-MY pseudovirus at 1 µg/mL” value [6] of the same binder?
**A.** ~100%

B2: 1E5 (antibody, V domains shown)
VH: VQLQESGPGVVKPSETLSLTCAVSGGSISDTYRWSWIRQPPGKGLEWIGYIYGSATSTYYNPSLSSRVTISKDMSKNQFSLNLNSVTAADTAVYYCARDYQYYYSGSYPTPHNWFDVWGPGVLVTVSS
VL: DIQMTQSPSSLSASVGDRVTITCRASQGIIDYLSWYQQKPGKAPKLLISTASNLESGVPSRFSGSGSGTEFTLTISSLQPEDFATYSCLQGYTTPYTFGQGTKVEIKT
**Q.** What does the source list for B2?
**A.** percent neutralisation of NiV-BD pseudovirus at 1 µg/mL [1]: 100%; EC50 [2]: 0.00034 µg/mL; EC50 [3]: 0.00085 µg/mL; IC50 (read off the curve) [7]: ~0.2 µg/mL; IC50 (read off the curve) [8]: ~0.06 µg/mL; IC50 (read off the curve) [9]: 0.04 µg/mL; Kd [10]: 0.171 nM; IC50 (read off the curve) [11]: ~0.1 µg/mL; IC50 (read off the curve) [12]: 0.06 µg/mL; Kd [13]: 0.785 nM; Kd [14]: < 1 pM; EC50 [4]: 2.6 ng/mL; IC50, neutralisation of HeV pseudovirus (HIV backbone, luciferase, 293T cells) [5]: 5.74 ng/mL; percent neutralisation of HeV pseudovirus at 1 µg/mL [5]: ~100%; percent neutralisation of NiV-MY pseudovirus at 1 µg/mL [6]: ~100%

B3: 2E7 (antibody, V domains shown)
VH: VQLQESGPGLVKPSETLSLTCSVSGGSISISNWWSWIRQSPGKGLEWIGYIYGSSGSTLYNPSLKSRVSISTDTSKNQFSLKLRSVTAADTAVYYCASPSIAATGDFDYWGQGVLVTVSS
VL: QSVLTQPPSASGAPGQSVTISCSGSSSNIGGNNVYWYQQLPGTAPKLLIYSSNQRPSGVPDRFSGSKSGTSASLAITGLRSEDEADYFCAVWDDSLGSPFFGGGTRLTVLR
notes: copies: 2 + 2
**Q.** B3 was tested. Which EC50 [2] did it give?
**A.** 0.0701 µg/mL

**Q.** And the EC50 [3]?
**A.** 0.0267 µg/mL

B4: 2A4 (antibody, V domains shown)
VH: QVQLQESGPGLVKPSETLSLTCPVSGASISSHWWTWIRQPPGKGLEWIGEIHGNSGSTNYNPSLKSRVTISKDASKNHFSLKLSSVTAADTAVYYCARDGHLGILVVFATSRFDVWGPGVLVTVSS
VL: DIQMTQSPSSLSASVGDTVTITCQASQGIANNLNWYQQKPGKAPKLLIYRASSLQSGIPSRFSGSGSGTDYTLTISSLQPEDFATYYCQQGYTYPRTFGQGTKVEIKT
**Q.** Which results are given for B4?
**A.** percent neutralisation of NiV-BD pseudovirus at 1 µg/mL [1]: 100%; EC50 [2]: 0.00737 µg/mL; EC50 [3]: 0.0112 µg/mL; EC50 [4]: 4.5 ng/mL; IC50, neutralisation of HeV pseudovirus (HIV backbone, luciferase, 293T cells) [5]: 29 ng/mL; percent neutralisation of HeV pseudovirus at 1 µg/mL [5]: ~100%; percent neutralisation of NiV-MY pseudovirus at 1 µg/mL [6]: ~100%
